From US20190153092A1 (NBE THERAPEUTICS, published 2019)

What was measured:
[1] = molecular target: T1, StrepII-tagged ROR1-extracellular domain (human) (human, UniProt Q01973 30-406); assay: SPR (Biacore T200), purified mAb captured by anti-human Fc, ROR1-strep 2.5-20 nM as analyte, 1:1 model, 25 C
T1 construct: extracellular domain; also called ROR1-strep; soluble ROR1-strep
Procedure: ROR1-strep was diluted in running buffer using 2-fold serial dilutions ranging from 20 nM to 2.5 nM. Association was measured at a flow of 30 μl/min for 120 s, and dissociation was followed for 200 s. Curves were fitted using 30 s dissociation due to upper plateau formation at later timepoints. Capture levels ranged from 29.1 RU to 57.7 RU.

[2] = molecular target: T1, StrepII-tagged ROR1-extracellular …; assay: SPR (Biacore T200), IgG from HEK293T supernatant captured by anti-human Fc, ROR1-strep 2.5-20 nM as analyte, 1:1 model, 25 C
Procedure: For initial determination of huR12 clone affinities and parental R12 using transient HEK293T supernatants, IgG expression vectors were transiently transfected into 293T cells and IgG titers in supernatants were quantified by ELISA. For SPR, supernatants were diluted to 1 μg/ml IgG with running buffer (HBS-EP+ pH 7.4 (10 mM HEPES, 150 mM NaCl, 3 mM EDTA, 0.05% Tween 20)) and captured for 200 s with a flow of 30 μl/min. ROR1-strep was diluted in running buffer using 2-fold serial dilutions ranging from 20 nM to 2.5 nM. Association was measured at a flow of 30 μl/min for 120 s, and dissociation was followed for 1000 s. Capture levels ranged from 26.9 RU to 54.1 RU.

[3] = molecular target: T1, StrepII-tagged ROR1-extracellular …; assay: SPR (Biacore T200), purified mAb captured by goat anti-human Fc-gamma IgG, ROR1-strep 1.25 to 20 nM, 120 s association, 1000 s dissociation, 1:1 model
Procedure: FIG. 13: Comparison of affinities of humanized and parental R12 mAbs determined by SPR using purified antibody. The three humanized R12 mAbs indicated were expressed at large scale in HEK293T cells, purified by Protein A affinity chromatography and subjected to SPR analysis for determination of affinity towards soluble ROR1-strep. Antibodies were captured using a goat α-human Fc-gamma-specific IgG. ROR1-strep was diluted in running buffer using 2-fold serial dilutions ranging from 1.25 nM to 20 nM. Association was measured 120 s, and dissociation was followed for 1000 s. Capture levels ranged from 26.9 RU to 54.1 RU.

T1 sequence (Q01973 other isoform, or with tags, fused parts or gaps): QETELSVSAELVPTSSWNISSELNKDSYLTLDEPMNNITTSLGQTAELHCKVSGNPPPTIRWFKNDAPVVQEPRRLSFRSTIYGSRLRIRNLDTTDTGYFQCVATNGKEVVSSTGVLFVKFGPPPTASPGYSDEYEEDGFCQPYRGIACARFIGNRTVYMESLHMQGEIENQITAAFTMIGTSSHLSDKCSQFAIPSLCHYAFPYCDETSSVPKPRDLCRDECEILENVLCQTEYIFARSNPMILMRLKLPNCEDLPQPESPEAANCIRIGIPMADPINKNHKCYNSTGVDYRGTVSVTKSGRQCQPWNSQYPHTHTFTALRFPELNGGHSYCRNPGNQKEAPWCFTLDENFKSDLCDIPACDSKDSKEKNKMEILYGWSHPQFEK

| Binder | Kd [1] [nM] | koff [1] [s⁻¹] | kon [1] [M⁻¹ s⁻¹] | Kd [2] [nM] | koff [2] [s⁻¹] | kon [2] [M⁻¹ s⁻¹] | Kd [3] [nM] |
| --- | --- | --- | --- | --- | --- | --- | --- |
| hu2A2-D23, humanized from 2A2 (antibody, human IgG1, V domains shown, Human IgG1/kappa, expressed in 293T cells and purified; also called msD23-19) VH: QVQLVESGAEVKKPGASVKLSCKASGYTFSDYEMHWVRQAPGQRLEWMGAIDPETGGTAYNQKFKGRVTITVDKSASTAYMELSSLRSEDTAVYYCTGYYDYDSFTYWGPGTTVTVSS VL: DIVMTQSPSTLSASVGDRVTITCKASQNVDAAVAWYQQKPGTAPKLLIYSASNRYTGVPSRFSGSGSGTEFTLTISSLQSEDLADYFCQQYDIYPYTFGQGTKLEIK | 8 | 0.0138 | 1.72e+06 |  |  |  |  |
| hu2A2b-Q11, humanized from 2A2 (antibody, human IgG1, V domains shown, also called hu2A2-Q11; msQ11-3) VH: EVQLVQSGAEVKKPGASVKVSCKASGYTFSDYEMHWVRQAPGQGLEWLGAIDPETGGTAYNQKFKGRVTMTGDTSISTAYMELSRLTSDDTAVYYCTGYYDYDSFTYWGQGTLVSVSS VL: DIQMTQSPSSLSTSVGDRVTITCKASQNVDAAVAWYQQKPGKAPKLLIYSASNRYTGVASRFSGSGSGTDFTFTISSLQSEDLADYFCQQYDIYPYTFGQGTKLEIK | 9.9 | 0.0173 | 1.75e+06 |  |  |  |  |
| huR12_11, humanized from R12 (antibody, human IgG1, V domains shown, Human IgG1 with lambda light chain) VH: QVQLVESGGALVQPGGSLTLSCKASGFDFSAYYMSWVRQAPGKGLEWIATIYPSSGKTYYAASVQGRFTISADNAKNTVYLQMNSLTAADTATYFCARDSYADDGALFNIWGQGTLVTVSS VL: QLVLTQSPSVSAALGSSAKITCTLSSAHKTDTIDWYQQLAGQAPRYLMYVQSDGSYEKRSGVPDRFSGSSSGADRYLIISSVQADDEADYYCGADYIGGYVFGGGTQLTVG |  |  |  | 0.084 | 9.65e-05 | 1.15e+06 | 0.0616 |
| rbQ11, humanized from R11 (antibody, human IgG1, V domains shown, Human IgG1/kappa, expressed in 293T cells and purified; also called huR11-Q11; rbQ11-32) VH: EVQLVQSGGGLVQPGGSLRLSCAASGSDINDYPISWVRQAPGKGLEWVSFINSGGSTWYASWVKGRFTISRDNAKNSLYLQMNSLRDDDTATYFCARGYSTYYGDFNIWGQGTLVTVSS VL: DIVMTQSPSSLSASVGDRVTITCQASQSIDSNLAWFQQKPGKAPKSLIYRASNLASGVPSKFSGSGSGTDFTLTISSLQREDAATYYCLGGVGNVSYRTSFGGGTKVEIK | 6.1 | 0.00498 | 821000 |  |  |  |  |
| rbQ12, humanized from R11 (antibody, human IgG1, V domains shown, Human IgG1/kappa, expressed in 293T cells and purified; also called huR11-Q12; rbQ12-40) VH: EVQLVESGGGLVQPGGSLRLSCAASGSDINDYPISWVRQAPGKGLEWVSFINSGGSTWYASWVKGRFTISRDNAKNSLYLQMNSLRADDTATYFCARGYSTYYGDFNIWGQGTMVTVSS VL: EIVMTQSPSSLSASVGDRVTITCQASQSIDSNLAWFQQKPGKAPNLLIYRASNLASGVPSRFSGSGSGTEFTLTISSLQREDAATYYCLGGVGNVSYRTSFGQGTKVEIK | 14.2 | 0.0104 | 733000 |  |  |  |  |
| huR12_4, humanized from R12 (antibody, human IgG1, V domains shown, Human IgG1 with lambda light chain) VH: QVQLVESGGELVQPGGSLTLSCKASGFDFSAYYMSWVRQAPGKGLEWIATIYPSSGKTYYAASVQGRFTISADNAKNTVYLQMNSLTAADTATYFCARDSYADDGALFNIWGKGTLVTVSS VL: QLVLTQSPSVSAALGSSAKITCTLSSAHKTDTIDWYQQLAGQAPRYLMYVQSDGSYEKRSGVPDRFSGSASGADRYLAISRVQADDEADYYCGADYIGGYVFGGGTQLTVLG |  |  |  | 0.091 | 9.93e-05 | 1.09e+06 | 0.0571 |

Other lines, results leading:

| Kd [1] [nM] | koff [1] [s⁻¹] | kon [1] [M⁻¹ s⁻¹] | Kd [2] [nM] | koff [2] [s⁻¹] | kon [2] [M⁻¹ s⁻¹] | Kd [3] [nM] | Binder |
| --- | --- | --- | --- | --- | --- | --- | --- |
| 5.7 | 0.00968 | 1.69e+06 |  |  |  |  | chimeric mAb 2A2 (mouse variable regions, human IgG1/kappa constant regions) (antibody, V domains shown, also called chim 2A2; parental mAb 2A2) VH: QVQLQQSGAELVRPGASVTLSCKASGYTFSDYEMHWVIQTPVHGLEWIGAIDPETGGTAYNQKFKGKAILTADKSSSTAYMELRSLTSEDSAVYYCTGYYDYDSFTYWGQGTLVTVSA VL: DIVMTQSQKIMSTTVGDRVSITCKASQNVDAAVAWYQQKPGQSPKLLIYSASNRYTGVPDRFTGSGSGTDFTLTISNMQSEDLADYFCQQYDIYPYTFGGGTKLEIK |
| 10.9 | 0.0189 | 1.73e+06 |  |  |  |  | hu2A2-D16, humanized from 2A2 (antibody, human IgG1, V domains shown, Human IgG1/kappa, expressed in 293T cells and purified; also called msD16-7) VH: EVQLVESGAEVKKPGASVKVSCKASGYTFSDYEMHWVRQAPGQGLEWVGAIDPETGGTAYNQKFKGRVTMTRDTSTSTVYMELSSLRSEDTAVYYCTGYYDYDSFTYWGQGTLVTVSS VL: DIQMTQSPSSLSASVGDRVTITCKASQNVDAAVAWYQQKPGKAPKLLIYSASNRYTGIPTRFSGSGSGTDFTLTISSLQSEDLADYFCQQYDIYPYTFGQGTKVEIK |
|  |  |  | 1.03 | 0.000361 | 349000 | 0.427 | Chimeric mAb R12 (rabbit variable regions, human IgG1/lambda constant regions) (antibody, V domains shown, Full-length IgG1 with human gamma 1 and lambda constant regions; also called parental mAb R12) VH: QEQLVESGGRLVTPGGSLTLSCKASGFDFSAYYMSWVRQAPGKGLEWIATIYPSSGKTYYATWVNGRFTISSDNAQNTVDLQMNSLTAADRATYFCARDSYADDGALFNIWGPGTLVTISS VL: ELVLTQSPSVSAALGSPAKITCTLSSAHKTDTIDWYQQLQGEAPRYLMQVQSDGSYTKRPGVPDRFSGSSSGADRYLIIPSVQADDEADYYCGADYIGGYVFGGGTQLTVT |
|  |  |  | 0.092 | 8.79e-05 | 960000 |  | huR12_16, humanized from R12 (antibody, human IgG1, V domains shown, Human IgG1 with lambda light chain) VH: QVQLVESGGELVTPGGSLTLSCKASGFDFSAYYMSWVRQAPGKGLEWIASIYPSSGKTYYAAAVQGRFTISADNAKNTVYLQMNSLTAADTATYFCARDSYADDGALFNIWGQGTLVTVSS VL: QLVLTQSPSVSAALGSSAKITCTLSSAHKTDTIDWYQQLAGQAPRYLMYVQSDGSYEKRSGVPDRFSGSSSGADRYLIISSVQADDEADYYCGADYIGGYVFGGGTQLTVG |
| 9 | 0.0071 | 785000 |  |  |  |  | rbD4, humanized from R11 (antibody, human IgG1, V domains shown, Human IgG1/kappa, expressed in 293T cells and purified; also called huR11-D4; rbD4-32) VH: EVQLVESGGGLVQPGRSLRLSCTASGSDINDYPISWFRQAPGKGLEWVGFINSGGSTWYASWVKGRFTISRDDSKSIAYLQMNSLKTDDTATYFCARGYSTYYGDFNIWGQGTTVTVSS VL: DVVMTQSPSSLSASVGDRVTITCQASQSIDSNLAWFQQKPGKAPNLLIYRASNLASGVPSRFSGSGSGTEFTLTISSLQREDAATYYCLGGVGNVSYRTSFGQGTKVEIK |
|  |  |  | 0.11 | 0.000116 | 1.05e+06 | 0.051 | huR12_7, humanized from R12 (antibody, human IgG1, V domains shown, Human IgG1 with lambda light chain) VH: QVQLVESGGELVQPGGSLTLSCKASGFDFSAYYMSWVRQAPGKGLEWIATIYPSSGKTYYAASVQGRFTISADNAKNTVSLQMNSLTAADTATYFCARDSYADDGALFNIWGKGTLVTVSS VL: QLVLTQSPSVSAALGSSAKITCTLSSAHKTDTIDWYQQLAGQAPRYLMYVQSDGSYEKRSGVPDRFSGSSSGADRYLIISSVQADDEADYYCGADYIGGYVFGGGTQLTVLG |
